Measurements as given in US20140212425A1.

Tests used:
[1] = biological target: Soluble single-chain FcRn (extracellular domain of the human FcRn heavy chain fused with β2-microglobulin via a flexible peptide linker) (human) (UniProt P55899); assay: SPR (BIACORE X), scFcRn amine-coupled to CM5 chip, antibody 25-400 nM as analyte, pH 6.0, two-state reaction model; Run 3
[2] = biological target: Soluble single-chain FcRn (extracellular domain of the human FcRn heavy chain fused with β2-microglobulin via a flexible peptide linker) (human) (UniProt P55899); assay: SPR (BIACORE X), scFcRn on CM5 chip, pH 6.0, two-state reaction model; mean of 3 runs, S.D. 1.5
[3] = biological target: Soluble single-chain FcRn (extracellular domain of the human FcRn heavy chain fused with β2-microglobulin via a flexible peptide linker) (human) (UniProt P55899); assay: SPR (BIACORE X), scFcRn amine-coupled to CM5 chip, antibody 25-400 nM as analyte, pH 6.0, two-state reaction model; Run 1
[4] = biological target: Soluble single-chain FcRn (extracellular domain of the human FcRn heavy chain fused with β2-microglobulin via a flexible peptide linker) (human) (UniProt P55899); assay: SPR (BIACORE X), scFcRn amine-coupled to CM5 chip, antibody 25-400 nM as analyte, pH 6.0, two-state reaction model; Run 2
[5] = biological target: CD20 on cells (Daudi cells, B cells in PBMCs) (human) (UniProt P11836); assay: cell-based or functional assay
[6] = biological target: Soluble single-chain FcRn (extracellular domain of the human FcRn heavy chain fused with β2-microglobulin via a flexible peptide linker) (human) (UniProt P55899); assay: SPR (BIACORE X), scFcRn on CM5 chip, pH 6.0, two-state reaction model; mean of 3 runs, S.D. 2.72 × 10^4
[7] = biological target: Soluble single-chain FcRn (extracellular domain of the human FcRn heavy chain fused with β2-microglobulin via a flexible peptide linker) (human) (UniProt P55899); assay: SPR (BIACORE X), scFcRn on CM5 chip, pH 6.0, two-state reaction model; mean of 3 runs, S.D. 0.0024
[8] = biological target: Soluble single-chain FcRn (extracellular domain of the human FcRn heavy chain fused with β2-microglobulin via a flexible peptide linker) (human) (UniProt P55899); assay: SPR, scFcRn immobilised, pH 6.0
[9] = biological target: Soluble single-chain FcRn (extracellular domain of the human FcRn heavy chain fused with β2-microglobulin via a flexible peptide linker) (human) (UniProt P55899); assay: SPR (BIACORE X), scFcRn on CM5 chip, pH 6.0, two-state reaction model; mean of 3 runs, S.D. 21.5
[10] = biological target: CD22 on cells (B cells in PBMCs, Daudi, D1-1 cells) (human) (UniProt P20273); assay: cell-based or functional assay

Sequence of Soluble single-chain FcRn (extracellular domain of the human FcRn heavy chain fused with β2-microglobulin via a flexible peptide linker) (human) (P55899 24-297 limits assumed, chain 1 of 2): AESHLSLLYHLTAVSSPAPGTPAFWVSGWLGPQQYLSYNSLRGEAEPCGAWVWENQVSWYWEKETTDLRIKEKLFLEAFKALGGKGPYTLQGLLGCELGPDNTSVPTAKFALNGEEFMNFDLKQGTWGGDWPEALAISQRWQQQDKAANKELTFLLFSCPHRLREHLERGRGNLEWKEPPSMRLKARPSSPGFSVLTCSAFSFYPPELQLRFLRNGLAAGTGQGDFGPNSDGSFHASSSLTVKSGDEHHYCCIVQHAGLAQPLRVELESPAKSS
Sequence of Soluble single-chain FcRn (extracellular domain of the human FcRn heavy chain fused with β2-microglobulin via a flexible peptide linker) (human) (P61769 21-119 limits assumed, chain 2 of 2, further chain): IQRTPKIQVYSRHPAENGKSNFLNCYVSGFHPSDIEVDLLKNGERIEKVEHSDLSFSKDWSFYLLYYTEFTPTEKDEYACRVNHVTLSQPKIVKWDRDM
Sequence of CD20 on cells (Daudi cells, B cells in PBMCs) (human) (P11836 whole entry, the tested form may be a part): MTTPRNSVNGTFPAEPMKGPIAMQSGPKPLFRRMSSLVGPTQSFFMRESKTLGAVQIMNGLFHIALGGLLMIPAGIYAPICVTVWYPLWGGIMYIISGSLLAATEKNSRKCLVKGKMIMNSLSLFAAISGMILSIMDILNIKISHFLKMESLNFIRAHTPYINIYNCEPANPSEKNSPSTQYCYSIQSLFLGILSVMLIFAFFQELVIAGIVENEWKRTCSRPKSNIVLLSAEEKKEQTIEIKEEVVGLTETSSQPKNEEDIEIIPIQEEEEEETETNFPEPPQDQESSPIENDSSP

Molecule “Epratuzumab (humanized anti-CD22 IgG1κ) (antibody)” has a Kd [1] of 15.8 nM, a Kd [2] of 16.3 nM and a Kd [3] of 15 nM. It also gave a Kd [4] of 17.9 nM.

With “20*-2b (Ck-AD2-IgG-veltuzumab conjugated with IFNα2b-DDD2) (from UniProt P01563 24-188)” the cytotoxicity in Daudi cells, EC50 (MTS assay, 3 days) [5] was 200 nM.

In the case of “22-(20)-(20), Fc-based anti-CD22/CD20 bispecific hexavalent antibody (CH3-AD2-IgG-epratuzumab conjugated with CH1-DDD2-Fab-veltuzumab) (bispecific antibody)”, the Kd [1] is reported as 352 nM and the Kd [4] is reported as 267 nM.

For “22*-(20)-(20), anti-CD22/CD20 bispecific hexavalent antibody (Ck-AD2-IgG-epratuzumab conjugated with CH1-DDD2-Fab-veltuzumab) (bispecific antibody)”, the Kd [1] was 178 nM, the koff [1] was 0.0441 s⁻¹ and the kon [1] was 248000 M⁻¹ s⁻¹. It also gave a kon [6] of 251000 M⁻¹ s⁻¹, a koff [7] of 0.0413 s⁻¹ and a Kd [3] of 141 nM. For the same molecule, the koff [3] was 0.0395 s⁻¹, the kon [3] was 280000 M⁻¹ s⁻¹ and the Kd [4] was 179 nM. The koff [4] was 0.0404 s⁻¹, the kon [4] was 226000 M⁻¹ s⁻¹ and the Kd [8] was 155 nM. For the same molecule, the fold stronger binding affinity than 22-(20)-(20) [8] was 2 fold and the Kd [9] was 166 nM.

“20-2b (CH3-AD2-IgG-veltuzumab conjugated with IFNα2b-DDD2) (from UniProt P01563 24-188)” showed a cytotoxicity in Daudi cells, EC50 (MTS assay, 3 days) [5] of 200 nM.

B1: F(ab′)2 fragment of epratuzumab (protein, INN chains, looked up)
VH: QVQLVQSGAEVKKPGSSVKVSCKASGYTFTSYWLHWVRQAPGQGLEWIGYINPRNDYTEYNQNFKDKATITADESTNTAYMELSSLRSEDTAFYFCARRDITTFYWGQGTTVTVSS
VL: DIQLTQSPSSLSASVGDRVTMSCKSSQSVLYSANHKNYLAWYQQKPGKAPKLLIYWASTRESGVPSRFSGSGSGTDFTFTISSLQPEDIATYYCHQYLSSWTFGGGTKLEIK
modifications: F(ab')2
B1 gave a CD22 level on the surface of B cells in PBMCs (% of isotype control MFI), 10 µg/mL [10] of 45 % control.
